Assay [1] concerns the target human α-CGRP fragment 25-37 (human). Put plainly: Biacore 25 C, Fab over N-biotinylated fragment on SA chip.
In assay [2] the target is rat α-CGRP (1-37) (rat). Put plainly: Biacore 37 C, Fab over N-biotinylated rat α-CGRP on SA chip.
The target of assay [3] is human α-CGRP 1-37 (WT) (human). The assay can be described thus: Biacore 25 C, Fab over N-biotinylated CGRP on SA chip.
The target in assay [4] is human α-CGRP 1-37 (WT) (human). Put plainly: Biacore 37 C, Fab over N-biotinylated CGRP on SA chip.

Sequence of human α-CGRP 1-37 (WT) (human) (peptide, as listed by the source): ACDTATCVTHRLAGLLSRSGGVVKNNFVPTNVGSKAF
Sequence of rat α-CGRP (1-37) (rat) (peptide, as listed by the source): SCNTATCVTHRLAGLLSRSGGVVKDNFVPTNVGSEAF

“anti-CGRP monoclonal antibody 4901 (Sigma, Product No. C7113), Fab fragment” registered a fold lower affinity than binding to full length human α-CGRP in assay [1] of 6 fold. For the same substance, the dissociation constant (Kd) was 3.4 nM in assay [2], 61 nM in assay [3] and 139 nM in assay [4].

Source of the values: patent US20180162931A1.
